This note sets out measurements from US9844563B2, “Compositions, kits, and methods to induce acquired cytoresistance using stress protein inducers” (FRED HUTCHINSON CANCER RESEARCH CENTER, priority 2014, dated 2017).

Data set [1] deals with Haptoglobin. The experiment in a line: Haptoglobin protein expression after SQ myoglobin with or without PEG. To be noted: 4 hour time point after SQ injection. The data set is classed as in vivo, mice. On the procedure: Myoglobin+PEG: To a stock solution of 20 mg/ml Mgb in PBS was added 100 mg/ml of PEG-6000; […]. This was administered as a subcutaneous injection in the dorsal neck (250 ul total injection). For combined Mgb/PEG+SnPP, SnPP was added to the above in a concentration of 3 mg/ml.

Data set [2] deals with HK-2 cells. The experiment in a line: HK-2 cell injury by MTT assay. The class given is cell-based. The conditions noted are these: 10 mg/mL, 18 hr incubation, compared to control incubated cells. The method, then: HK-2 cells (a proximal tubule cell line derived from normal human kidney) were incubated in keratinocyte serum free medium either under normal (control) conditions or in the presence of 10 mg/mL horse skeletal muscle myoglobin or nitrited myoglobin (produced by equimolar Na nitrite addition to 10 mg/ml myoglobin). After 18 hr incubations, the severity of cell injury (% cell death) was assessed by MTT assay. Myoglobin induced 40% cell death (40% decrease in MTT cell uptake), compared to control incubated cells. Nitrite binding to myoglobin reduced cell death by 75%. Thus, nitrite binding is able to reduce myoglobin's cytotoxic effects.
(Tetrazolium dyes change colour on reduction, which living cells bring about.)

Details of data set [3]: species or system mice. The conditions noted are these: mouse, in vivo, iv.
The subject of data set [4] is HO-1 mRNA. The experiment in a line: Renal cortical HO-1 mRNA (RT-PCR) after IV myoglobin, SnPP or both. The class given is in vivo, mice. The text has this: (§1) The Glycerol Model of AKI. This is a widely used model of rhabdomyolysis-induced AKI that has been employed worldwide for 50 years. The model was used to test whether prophylactic interventions confer protection against AKI. Basically, the protocol is as follows: Male CD-1 mice (35-45 grams), obtained from Charles River Laboratories, Wilmington, Mass. were studied. Mice were maintained under standard vivarium conditions and generally housed for 1-3 weeks prior to study. The mice were placed in a cylindrical restraining cage, and then were given a tail vein injection of the test substances (see below) or test substance vehicle. The mice were then returned to their cages. Eighteen hours (hrs) later, the mice were briefly anesthetized by isoflurane inhalation, and given an intramuscular injection of hypertonic (50%) glycerol in a dose of 9 ml/Kg body weight. The dose is divided in two, with half injected into the muscle of each of the hind limbs. The mice were then returned to their cages. Eighteen hrs later, the mice were deeply anesthetized with pentobarbital (50-100 mg/Kg), the abdominal cavity was opened through a midline abdominal incision, a blood sample was obtained from the abdominal vena cava and the kidneys were resected. A kidney cross section was obtained and fixed in formalin for subsequent histologic analysis. The terminal blood samples were analyzed for BUN and creatinine, using commercially available assay kits. The remaining kidney tissue was subjected to cortical dissection, and the cortical tissues were then extracted for protein and RNA. The protein samples were saved for analysis of HO-1 levels, and the RNA samples were subjected to RT-PCR to quantify HO-1 mRNA as well as levels of other stress gene mRNAs (e.g. NGAL, haptoglobin, hemopexin, hepicidin).
(§2) Myoglobin+SnPP: To 5 mg of dry myoglobin was added 0.9 ml of PBS+0.1 ml of a stock SnPP solution (50 umole/ml). The resulting final concentrations were 5 mg/ml myoglobin+5 umoles/ml of SnPP. The tail vein was injected with 200 ul of this solution, which equals 1 mg myoglobin+1 umole SnPP. […]
Four hr post myoglobin vs myoglobin+SnPP vs SnPP alone experiments. To confirm that the myoglobin+SnPP has a synergistic effect in inducing HO-1 mRNA and HO-1 protein levels, each of the above combinations have been administered alone via tail vein injection. Four hrs later, the mice were sacrificed as noted above and the kidneys were harvested for assessment of HO-1 mRNA and protein levels. For additional information regarding methods, see Zager et al., Am J Physiol Renal Physiol. 2014 Jul. 30. Pii.

In data set [5] the test system is HO-1. The experiment in a line: Renal cortical HO-1 protein (ELISA) after IV myoglobin, SnPP or both. The data set is classed as in vivo, mice. The conditions noted are these: 1 mg Myoglobin, 1 μmole SnPP.
Description: as §1, §2
Four hr post myoglobin vs myoglobin+SnPP vs SnPP alone experiments. To confirm that the myoglobin+SnPP has a synergistic effect in inducing HO-1 mRNA and HO-1 protein levels, each of the above combinations have been administered alone via tail vein injection. […] For additional information regarding methods, see Zager et al., Am J Physiol Renal Physiol. 2014 Jul. 30. Pii.
(In general: An ELISA detects its analyte on a solid surface through an enzyme-linked reagent.)

Values joined by “and” are separate entries in the source; they are usually repeats but may differ in a detail not shown here. Equal values may be shown once.

B1: myoglobin (protein, listed as Homo Sapiens)
chain: MGLSDGEWQLVLNVWGKVEADIPGHGQEVLIRLFKGHPETLEKFDKFKHLKSEDEMKASEDLKKHGATVLTALGGILKKKGHHEAEIKPLAQSHATKHKIPVKYLEFISECIIQVLQSKHPGDFGADAQGAMNKALELFRKDMASNYKELGFQG
notes: Lyophilized horse skeletal muscle myoglobin (Sigma Chemicals) used as the test agent
As to B1, the “Haptoglobin Protein Expression” value in data set [1] came to 32.7 ± 6.3 ng/mg protein. In addition, in data set [2], the “cell death (decrease in MTT cell uptake)” value is on record as 40%. Moreover, the “Plasma LDH, Average” value in data set [3] is 4.47 Absorbance U LDH/ml. For the same molecule, the “HO-1 mRNA induction (HO-1/GAPDH mRNA), Average” value in data set [4] (4 hrs post IV injection, average) was found to be 3.93 HO-1/GAPDH mRNA. Also, in data set [4] (4 hrs post IV injection, single animals), the “HO-1 mRNA induction (HO-1/GAPDH mRNA), individual mice” value was 7.78 HO-1/GAPDH mRNA and 2.93 HO-1/GAPDH mRNA and 2.58 HO-1/GAPDH mRNA and 2.41 HO-1/GAPDH mRNA. Besides, the “HO-1 mRNA induction overnight post injection, Average” value in data set [4] (Ovnt (roughly 18 hrs) IV, 1 mg Myoglobin, 1 μmole SnPP, average) is given as 0.58 HO-1/GAPDH mRNA. For the same molecule, in data set [4] (Ovnt (roughly 18 hrs) IV, 1 mg Myoglobin, 1 μmole SnPP, single animals), the “HO-1 mRNA induction overnight post injection, individual subjects” value is 0.71 HO-1/GAPDH mRNA and 0.53 HO-1/GAPDH mRNA and 0.51 HO-1/GAPDH mRNA. In addition, the “HO-1 Protein Expression (by ELISA), Average” value in data set [5] (Cortex, 4 hr IV, average) is 45.4 ng HO-1/mg protein. Also, in data set [5] (Cortex, 4 hr IV, single animals), the “HO-1 Protein Expression (by ELISA), individual mice” value was 36.0 ng HO-1/mg protein and 40.7 ng HO-1/mg protein and 40.2 ng HO-1/mg protein and 64.7 ng HO-1/mg protein. Besides, in data set [5] (Ovnt (roughly 18 hrs) IV, average, in ng/mg protein), the “HO-1 protein induction overnight post injection, Average” value was determined as 36.7. The “HO-1 protein induction overnight post injection, individual subjects” value in data set [5] (Ovnt (roughly 18 hrs) IV, single animals, in ng/mg protein) was 50.6 and 34.9 and 24.6.
